Reference: patent US20080233137A1 (published 2008)

Experiments:
[1] = biological target: T1, WT-CHIPS (CHIPS 1-121), CHemotaxis Inhibitory Protein from Staphylococcus aureus (Staphylococcus aureus (strain Newman), UniProt A6QIG7 29-149); experiment: flow cytometry, 3 ug/ml CHIPS-FITC on HEK-293 cells displaying the C5aR N-terminus (pDISPLAY)
T1 construct: mature

[2] = biological target: T1, WT-CHIPS (CHIPS 1-121), CHemotaxis …; experiment: flow cytometry, 3 ug/ml CHIPS-FITC on HEK-293 cells expressing FLAG-tagged C5aR (pcDNA3.1)

Row | Binder | binding result [1] | binding result [2]
1 | MNSFNYTTPDYGHYDDKDTLDLNTPVDKTSNTLRVPDI (receptor, domain: transmembrane domain; also called C5aR N-terminal protein; pDISPLAY C5aR N-terminal protein) | binds | –
2 | FLAG-tagged complete human C5aR expressed on HEK293 cells (pcDNA3.1) (receptor, also called whole C5aR; complete C5aR) MDYKDDDDKNSFNYTTPDYGHYDDKDTLDLNTPVDKTSNTLRVPDILALVIFAVVFLVGVLGNALVVWVTAFEAKRTINAIWFLNLAVADFLSCLALPILFTSIVQHHHWPFGGAACSILPSLILLNMYASILLLATISADRFLLVFKPIWCQNFRGAGLAWIACAVAWGLALLLTIPSFLYRVVREEYFPPKVLCGVDYSHDKRRERAVAIVRLVLGFLWPLLTLTICYTFILLRTWSRRATRSTKTLKVVVAVVASFFIFWLPYQVTGIMMSFLEPSSPTFLLLNKLDSLCVSFAYINCCINPIIYVVAGQGFQGRLRKSLPSLLRNVLTEESVVRESKSFTRSTVDTMAQKTQAV | – | binds
